Source: PMC11754596

Target: p53 (UniProt P04637)
Experiment: anti-Flag IP, anti-HA blot
Conditions: reference: HA-STAT1 wild type; sites Y701

binding against the reference: weaker
Substance: STAT1 (from UniProt P42224) HA-STAT1-Y701F
